These are literature values, as cited in PMC3702509, “Label Free Fragment Screening Using Surface Plasmon Resonance as a Tool for Fragment Finding – Analyzing Parkin, a Difficult CNS Target” (PLoS ONE, 2013).

pKd: −log10 of the molar value.

For this data set, the target named is UblD (Parkin ubiquitin-like domain) Ubl domain (Homo sapiens) (UniProt O60260).
Sequence of UblD (Parkin ubiquitin-like domain) Ubl domain (Homo sapiens) (O60260 1-76): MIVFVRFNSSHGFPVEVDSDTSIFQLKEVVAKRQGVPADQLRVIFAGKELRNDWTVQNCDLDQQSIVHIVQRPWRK

Sequence of Parkin (ΔUblD) ΔUblD (O60260 77-465, stated change not applied): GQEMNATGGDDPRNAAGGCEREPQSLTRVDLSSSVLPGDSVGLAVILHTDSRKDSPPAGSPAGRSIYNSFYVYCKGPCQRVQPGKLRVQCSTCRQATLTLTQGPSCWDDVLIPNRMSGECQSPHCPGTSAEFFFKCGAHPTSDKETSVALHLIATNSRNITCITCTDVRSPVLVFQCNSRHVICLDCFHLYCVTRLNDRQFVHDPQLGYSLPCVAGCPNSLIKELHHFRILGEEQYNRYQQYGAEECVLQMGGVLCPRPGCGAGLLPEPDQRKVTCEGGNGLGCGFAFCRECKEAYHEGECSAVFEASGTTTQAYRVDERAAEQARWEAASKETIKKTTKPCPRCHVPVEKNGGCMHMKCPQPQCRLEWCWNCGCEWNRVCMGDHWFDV

In general, pKd refers to −log10 of the Kd, conventionally taken in molar units. With “Parkin (ΔUblD) ΔUblD (from UniProt O60260)”, the pKd was 5.59.
